The values below come from publication PMC4004224 (Journal of the American Chemical Society, 2014).

The assay has as its target T1, recombinant human Rnase inhibitor (human, UniProt P13489 1-461).
T1 sequence (looked up): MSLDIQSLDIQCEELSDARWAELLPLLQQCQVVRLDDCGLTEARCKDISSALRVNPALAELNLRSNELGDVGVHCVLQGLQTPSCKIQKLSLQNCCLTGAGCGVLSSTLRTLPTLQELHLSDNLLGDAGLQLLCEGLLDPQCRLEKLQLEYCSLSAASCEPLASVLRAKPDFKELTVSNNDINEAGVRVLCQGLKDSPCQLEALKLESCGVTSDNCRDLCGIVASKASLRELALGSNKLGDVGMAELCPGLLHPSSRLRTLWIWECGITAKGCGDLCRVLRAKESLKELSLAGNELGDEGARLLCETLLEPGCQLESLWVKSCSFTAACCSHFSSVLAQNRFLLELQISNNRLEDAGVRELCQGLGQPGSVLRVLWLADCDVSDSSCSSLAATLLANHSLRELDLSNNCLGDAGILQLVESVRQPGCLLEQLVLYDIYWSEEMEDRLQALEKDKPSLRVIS

B1: pyronin-conjugated bovine Rnase A (enzyme, UniProt P61823 27-150, looked up)
chain: KETAAAKFERQHMDSSTSAASSSNYCNQMMKSRNLTKDRCKPVNTFVHESLADVQAVCSQKNVACKNGQTNCYQSYSTMSITDCRETGSSKYPNCAYKTTQANKHIIVACEGNPYVPVHFDASV
modifications: lysines conjugated to the fluorinated pyronin from bromopyronin 5; 0.3-0.6 fluorophores per protein
For B1, the binding result is reported as “binds”.
